Measurements from patent publication US20250263448A1.

Key:
[1] = target: a native host protein; assay: Kd determination, method not stated; reference wild type PmSLP-1 (SEQ ID NO 2)
[2] = target: a native host protein; assay: Kd determination, method not stated

| Substance | factor by which the Kd exceeds the Kd of the native non-modified PmSLP [1] | Kd [2] |
| --- | --- | --- |
| modified PmSLP-1 having SEQ. ID NO: 65 (V214D mutation) | > 500 fold | < 2000 nM |
| wild type PmSLP-1 protein (SEQ. ID NO: 2) |  | 30 nM |
| modified PmSLP-1 having SEQ. ID NO: 67 (E240A mutation) | > 500 fold | < 2000 nM |
